The target in test [1] is T1, human TF ECD-His6 (human, UniProt P13726 33-251).
T1 construct: Expi293-derived; Biacore used TF-His; also called TF-His; hTF
The test is described as follows: BLI (ForteBio Octet). On the technique in general: Biolayer interferometry detects binding as a change in optical thickness at a sensor tip.

In test [2] the target is T2, cynomolgus monkey TF ECD-His6 (cynomolgus monkey (Macaca fascicularis)).
T2 construct: Expi293-derived; also called TF-His; cTF
T2 chain: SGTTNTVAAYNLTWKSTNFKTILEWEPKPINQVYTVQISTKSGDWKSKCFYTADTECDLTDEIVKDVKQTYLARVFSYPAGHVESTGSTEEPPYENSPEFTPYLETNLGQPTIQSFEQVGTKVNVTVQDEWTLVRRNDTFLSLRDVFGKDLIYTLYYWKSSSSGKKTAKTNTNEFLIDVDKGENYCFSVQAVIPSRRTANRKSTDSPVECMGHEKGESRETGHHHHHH
The test is described as follows: BLI (ForteBio Octet).

For test [3], the target named is T3, Relipidated TF (UniProt P13726 33-295, limits assumed). The test is described as follows: cell-based or functional assay.
In test [4] the target is T3, Relipidated TF. Description: cell-based or functional assay. The source holds these as a separate data set.
For test [5], the target named is T4, rTF (rat TF) construct on HEK293 cells (rat, UniProt P42533 29-252).
T4 construct: not shown: transmembrane/cytoplasmic anchor of the cell-surface construct
T4 sequence (P42533 29-252 limits assumed): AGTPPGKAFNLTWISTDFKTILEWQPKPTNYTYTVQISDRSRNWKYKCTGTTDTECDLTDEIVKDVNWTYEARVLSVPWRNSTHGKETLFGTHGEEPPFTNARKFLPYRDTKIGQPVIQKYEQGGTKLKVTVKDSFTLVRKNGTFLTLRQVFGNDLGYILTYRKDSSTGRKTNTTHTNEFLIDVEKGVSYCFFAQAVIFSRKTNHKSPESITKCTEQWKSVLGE
Description: live cell staining, HEK293 cells.

For test [6], the target named is T1, human TF ECD-His6. The test is described as follows: SPR (Biacore), TF-His over coupled antibody. (In general: SPR reads the build-up and loss of mass on a sensor chip optically.)
Test [7] addresses T2, cynomolgus monkey TF ECD-His6. Description: SPR (Biacore), TF-His over coupled antibody.
The target of test [8] is T5, full-length mouse TF with a C-terminal FLAG tag on Flp-In-CHO cells (mouse, UniProt P20352 29-294).
T5 construct: also called CHO-mTF; mouse TF-positive CHO cells
Description: flow cytometry, antibody titration on CHO cells expressing mouse TF. A general note: Flow cytometry measures light scatter and fluorescence of single cells or particles in a stream.

The target in test [9] is T5, full-length mouse TF with a C-terminal …. Description: flow cytometry on CHO cells expressing mouse TF, MFI at 250 nM antibody.
The target of test [10] is T6, human Tissue Factor on human TF-positive cells (human, UniProt P13726 33-295).
T6 construct: also called hTF; CD142
The test is described as follows: flow cytometry, antibody titration on A431 cells (human TF), 4-parameter fit of MFI.

The target of test [11] is T6, human Tissue Factor on human …. Description: flow cytometry, antibody titration on HCT-116 cells (endogenous human TF), 4-parameter fit of MFI.
Test [12] has the same target. Description: competition flow cytometry on MDA-MB-231 cells: antibody titration first, then 20 nM FVII-Fc-Alexa488 as the blocked ligand.
Test [13] shares this target. The test is described as follows: competition flow cytometry on MDA-MB-231 cells: unlabeled antibody titration first, then 20 nM 39A-Alexa488 as the competitor.
The target of a further test is T7, mouse TF ECD-His6 (mouse, UniProt P20352 29-251).
T7 construct: Expi293-derived; also called TF-His; mTF
Description: BLI (ForteBio Octet).

The target of test [14] is T5, full-length mouse TF with a C-terminal …. The test is described as follows: flow cytometry, antibody titration on CHO cells expressing mouse TF, 4-parameter fit of MFI.
Description: (§1) After 2 washes, dead cells were labeled with TO-PRO-3 Iodide (ThermoFisher Scientific) and samples were analyzed on a CytoFLEX flow cytometer (Beckman Coulter, Brea, CA, USA) or Novocyte flow cytometer (ACEA Biosciences, San Diego, CA, USA). The median fluorescence intensities (MFIs) at each dilution were plotted and cell EC₅₀'s were derived using a 4-parameter binding model in Prism (GraphPad, La Jolla, CA, USA).
Test [15] has as its target T6, human Tissue Factor on human …. Description: flow cytometry, antibody titration on HCT-116 cells (endogenous human TF), 4-parameter fit of MFI. The source holds these as a separate data set.
Description: as §1
In test [16] the target is T5, full-length mouse TF with a C-terminal …. The test is described as follows: flow cytometry on CHO cells expressing mouse TF, MFI at 250 nM antibody. The source holds these as a separate data set.
Description: as §1
The target is the same in test [17]. Description: flow cytometry, antibody titration on CHO cells expressing mouse TF, 4-parameter fit of MFI. This is another data set of the same source.
Description: as §1

Residue numbers refer to the chain shown, from its start. Like-named read-outs stand apart in the source and are kept apart here.

Description for mouse TF ECD-His6: Kinetic measurements for the anti-TF antibodies were conducted on an Octet QK384 (Pall ForteBio, Fremont, CA, USA) or a Biacore (GE Healthcare Bio-Sciences).
Briefly, ForteBio affinity measurements were performed by loading IgGs on-line onto AHC sensors. Sensors were equilibrated off-line in assay buffer for 30 min and then monitored on-line for 60 seconds for baseline establishment. Sensors with loaded IgGs were exposed to 100 nM antigen (human, cynomolgus, or mouse TF) for 3 min, afterwards they were transferred to assay buffer for 3 min for off-rate measurement. Alternatively, binding measurements were obtained by loading biotinylated TF monomer on SA sensors followed by exposure to 100 nM antibody Fab in solution. Kinetic data was analyzed and fitted using a 1:1 Langmuir binding model and the KD was calculated by dividing the koff by the kₒₙ.

B1: 1F (antibody, human IgG1, V domains shown)
VH: EVQLLESGGGLVQPGGSLRLSCAASGFTFSDYAMGWVRQAPGKGLEWVSTISGSGGLTYYADSVKGRFTISRDNSKNTLYLQMNSLRAEDTAVYYCAKAPYGYYMDVWGKGTTVTVSS
VL: not shown
notes: Human IgG1; also called antibody designated 1F
Usually Kd stands for the free concentration of one partner at which half of the binding sites on the other are occupied at equilibrium, for simple one-to-one binding. The term EC50 denotes the midpoint of the concentration-response curve. In general, IC50 refers to the point on the concentration scale where inhibition reaches its midpoint. On to B1, for which the Kd with human TF ECD-His6 [1] was found to be 1.28 nM. In addition, the equilibrium dissociation constant (Kd) in test [2] came out at 1.43 nM. For the same molecule, in the test with Relipidated TF [3], the “% ETP at 10 nM Ab (TGA without antibody pre-incubation)” value was 58%, the “% Peak IIa at 10 nM Ab (TGA without antibody pre-incubation)” value worked out at 21%, the “% Peak IIa at 50 nM Ab (TGA without antibody pre-incubation)” value is 8% and the “% Peak IIa at 100 nM Ab (TGA without antibody pre-incubation)” value was determined as 7%. Also, in the test with Relipidated TF [3], the “ETP at 10 nM Ab (TGA without antibody pre-incubation)” value came to 1400 nM·min, the “Lag Time at 10 nM Ab (TGA without antibody pre-incubation)” value turned out to be 12.1 min, the “Lag Time at 50 nM Ab (TGA without antibody pre-incubation)” value was 27.2 min and the “Lag Time at 100 nM Ab (TGA without antibody pre-incubation)” value amounted to 25.9 min. Besides, in the test with Relipidated TF [3], the “Peak IIa at 10 nM Ab (TGA without antibody pre-incubation)” value was 83 nM, the “Peak IIa at 50 nM Ab (TGA without antibody pre-incubation)” value stood at 32 nM, the “Peak IIa at 100 nM Ab (TGA without antibody pre-incubation)” value worked out at 29 nM and the “ttPeak at 10 nM Ab (TGA without antibody pre-incubation)” value is 19.8 min. Also, in the test with Relipidated TF [3], the “ttPeak at 50 nM Ab (TGA without antibody pre-incubation)” value is 36.8 min and the “ttPeak at 100 nM Ab (TGA without antibody pre-incubation)” value amounted to 37.9 min. In addition, in the test with Relipidated TF [4], the “% ETP at 10 nM Ab (TGA with 10 min antibody pre-incubation)” value stood at 31%, the “% Peak IIa at 10 nM Ab (TGA with 10 min antibody pre-incubation)” value stood at 10%, the “% Peak IIa at 50 nM Ab (TGA with 10 min antibody pre-incubation)” value came out at 7% and the “% Peak IIa at 100 nM Ab (TGA with 10 min antibody pre-incubation)” value worked out at 7%. Further, in the test with Relipidated TF [4], the “ETP at 10 nM Ab (TGA with 10 min antibody pre-incubation)” value is 540 nM·min, the “Lag Time at 10 nM Ab (TGA with 10 min antibody pre-incubation)” value came to 18.8 min, the “Lag Time at 50 nM Ab (TGA with 10 min antibody pre-incubation)” value was found to be 27.6 min and the “Lag Time at 100 nM Ab (TGA with 10 min antibody pre-incubation)” value came to 30.3 min. In the test with Relipidated TF [4], the “Peak IIa at 10 nM Ab (TGA with 10 min antibody pre-incubation)” value came to 27 nM, the “Peak IIa at 50 nM Ab (TGA with 10 min antibody pre-incubation)” value is 20 nM, the “Peak IIa at 100 nM Ab (TGA with 10 min antibody pre-incubation)” value came out at 17 nM and the “ttPeak at 10 nM Ab (TGA with 10 min antibody pre-incubation)” value is 28.6 min. Further, in the test with Relipidated TF [4], the “ttPeak at 50 nM Ab (TGA with 10 min antibody pre-incubation)” value amounted to 38.9 min and the “ttPeak at 100 nM Ab (TGA with 10 min antibody pre-incubation)” value was 42 min. In [5], the binding result is on record as “no binding”. In the test with human TF ECD-His6 [6], the Kd was 0.31 nM. In [7], this molecule registered a Kd of 0.26 nM. In addition, in test [8], the binding result is “no binding (tested: 250 nM)”. For the same molecule, the “MFI at 250 nM” value in test [9] amounted to 4200. The same molecule showed an EC50 in test [10] of 0.49 nM. In [11], this molecule gave an EC50 of 0.05 nM. Also, the “IC50 (read off the curve)” value in [12] was about 1 nM. Besides, the IC50 in [13] was determined as 0.65 nM.

B2: 25A5 (antibody, human IgG1, V domains shown)
VH: QVQLVQSGAEVKKPGASVKVSCKASGYTFDVYGISWVRQAPGQGLEWMGWIAPYSGNTNYAQKLQGRVTMTTDTSTSTAYMELRSLRSDDTAVYYCARDAGTYSPFGYGMDVWGQGTTVTVSS
VL: DIQMTQSPSTLSASVGDRVTITCRASESISNWLAWYQQKPGKAPKLLIYKAYSLEYGVPSRFSGSGSGTEFTLTISSLQPDDFATYYCQQFQKLPPFTFGGGTKVEIK
notes: Human IgG1; also called antibody designated 25A5
As to B2, the Kd with human TF ECD-His6 [1] was determined as 0.64 nM; with mouse TF ECD-His6 it was 188 nM; with human TF ECD-His6 [6], 0.08 nM; in test [7], 0.04 nM. Also, the “MFI at 250 nM” value in test [9] worked out at 8e+06. Also, the figures for the EC50 in test [14] and in [11] were 11 nM and 0.088 nM, respectively.

B3: 25G (antibody, human IgG1, V domains shown)
VH: B2 VH with D30R, V31S, I51V, S55N, F106Y
VL: B2 VL with E27Q, N31S, Y52S, Y56S, K93S
notes: Human IgG1; also called antibody designated 25G
Consider B3, for which the Kd was found to be 21.9 nM with human TF ECD-His6 [1]; 17.5 nM in test [2]; 114 nM with mouse TF ECD-His6; 23 nM in the test with human TF ECD-His6 [6]; 18 nM in test [7]. The “MFI at 250 nM” value in [9] was 1.6e+07. Moreover, the values for the EC50 in test [14] and in test [11] were 3.9 nM and 0.134 nM, respectively.

B4: 43B (antibody, human IgG1, V domains shown)
VH: QVQLQESGPGLVKPSQTLSLTCTVSGGSISSGQYWSWIRQHPGKGLEWIGEIYYSGSTRYNPSLKSRVTISVDTSKNQFSLKLSSVTAADTAVYYCARDAPYYYGGGYYYYMDVWGKGTTVTVSS
VL: EIVLTQSPGTLSLSPGERATLSCRASQSVSSSYLAWYQQKPGQAPRLLIYGASSRATGIPDRFSGSGSGTDFTLTISRLEPEDFAVYYCQQVGVVPYTFGGGTKVEIK
notes: Human IgG1; also called antibody designated 43B
On to B4, for which the Kd with human TF ECD-His6 [1] stood at 2.4 nM; in test [2], 3.4 nM; with mouse TF ECD-His6, 161 nM; with human TF ECD-His6 [6], 1.75 nM; in test [7], 5.64 nM. This molecule also registered an EC50 in test [15] of 0.559 nM.

B5: 43D (antibody, human IgG1, V domains shown)
VH: QVQLQQWGAGLLKPSETLSLTCAVYGGSLSGYYWSWIRQPPGKGLEWIGEIGASGSTRYNPSLKSRVTISVDTSKNQFSLKLSSVTAADTAVYYCARDTPYYYEGGYYYYMDVWGKGTTVTVSS
VL: B4 VL
notes: Human IgG1; also called antibody designated 43D
Take B5: the dissociation constant (Kd) with human TF ECD-His6 [1] was 3.84 nM; in [2] it was 4.12 nM; in the test with mouse TF ECD-His6 it was 281 nM; with human TF ECD-His6 [6] it was 2.09 nM; in [7], 5.66 nM. In addition, the “MFI at 250 nM” value in [16] is 1.3e+07. Further, the EC50 in test [17] is 2.9 nM; in test [15], 0.147 nM.

B6: 43B7 (antibody, human IgG1, V domains shown)
VH: B4 VH
VL: B4 VL with Q27E, S30D, S53D, V92D
notes: Human IgG1; also called antibody designated 43B7
In the case of B6, the Kd with human TF ECD-His6 [1] came out at 0.86 nM; in test [2], 0.94 nM; with mouse TF ECD-His6 it was 360 nM; with human TF ECD-His6 [6] it was 0.14 nM; in [7], 0.24 nM. For the same molecule, the “MFI at 250 nM” value in [16] is 800000. In test [15], this molecule showed a 50% effective concentration (EC50) of 0.255 nM.

B7: 43B1 (antibody, human IgG1, V domains shown)
VH: B4 VH
VL: B4 VL with Q27E, S30D, S54T, A56Q, V92A
notes: Human IgG1; also called antibody designated 43B1
In the test with mouse TF ECD-His6, B7 came in with a Kd of 72.1 nM. In test [16], the “MFI at 250 nM” value stood at 5.3e+06. This molecule displayed an EC50 in [17] of 255 nM.

The record behind these values is patent publication US20250361322A1 (ICONIC THERAPEUTICS, published 2025).
